In ChEMBL document CHEMBL2074411:

Substrate: NCCc1ccc(O)c(O)c1
Test: cells, lysate or membranes named

B1: Solute carrier family 22 member 2 (Rattus norvegicus) (protein)
chain: MSTVDDILEHIGEFHLFQKQTFFLLALLSGAFTPIYVGIVFLGFTPDHHCWSPGAAKLSQRCGWSQAEELNYTVPGLGPSDEASFLSQCMRYEVDWNQSTLDCVDPLSSLAADRNQLPLGPCEHGWVYNTPGSSIVTEFNLVCAHSWMLDLFQSVVNVGFFIGAMMIGYLADRFGRKFCLLVTILINAISGALMAISPNYAWMLVFRFLQGLVSKAGWLIGYILITEFVGLGYRRMVGICYQIAFTVGLLILAGVAYVIPNWRWLQFAVTLPNFCFLLYFWCIPESPRWLISQNKIVKAMKIIKHIAKKNGKSVPVSLQNLTPDEDAGKKLNPSFLDLVRTPQIRKHTLILMYNWFTSSVLYQGLIMHMGLAGDNIYLDFFYSALVEFPAAFIIILTIDRVGRRYPWAVSNMVAGAACLASVFIPDDLQWLKITIACLGRMGITMAYEMVCLVNAELYPTYIRNLGVLVCSSMCDIGGIITPFLVYRLTDIWMEFPLVVFAVVGLVAGALVLLLPETKGKALPETIEDAENMQRPRKKKEKRIYLQVKQADRPLS
  Km: 2300 µM
